The text below walks through data of paper PMC11531485, “Examining prestructured β-actin peptides as substrates of histidine methyltransferase SETD3” (Scientific Reports, 2024).

Positions of bridges follow the written chain, without caps; N, C: chain ends. No end group written: not given here. Some results are limits rather than exact numbers.

Experiment [1] deals with T1, human SETD3 histidine methyltransferase (human, UniProt Q86TU7 1-594).
T1 construct: SETD3, human; In the ITC SETD3 was preincubated with SAH; also called recombinant human SETD3; source: E. coli BL21(DE3), purified (HisTrap FF, dialysis)
T1 sequence (looked up): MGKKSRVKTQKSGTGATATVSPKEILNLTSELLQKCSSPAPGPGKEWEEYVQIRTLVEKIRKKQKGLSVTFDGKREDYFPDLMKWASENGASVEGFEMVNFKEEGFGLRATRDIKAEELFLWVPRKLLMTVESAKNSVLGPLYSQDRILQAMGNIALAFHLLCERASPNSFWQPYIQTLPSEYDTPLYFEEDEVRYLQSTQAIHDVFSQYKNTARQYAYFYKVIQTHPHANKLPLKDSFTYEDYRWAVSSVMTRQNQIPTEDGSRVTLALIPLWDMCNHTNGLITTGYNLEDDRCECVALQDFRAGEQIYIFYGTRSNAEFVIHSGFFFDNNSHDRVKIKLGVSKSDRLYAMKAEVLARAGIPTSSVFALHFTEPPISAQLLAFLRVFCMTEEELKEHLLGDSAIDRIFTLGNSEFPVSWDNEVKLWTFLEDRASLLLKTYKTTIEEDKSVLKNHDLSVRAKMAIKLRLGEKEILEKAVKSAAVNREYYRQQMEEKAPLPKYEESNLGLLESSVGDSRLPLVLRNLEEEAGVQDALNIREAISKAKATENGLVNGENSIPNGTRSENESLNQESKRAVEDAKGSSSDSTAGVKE
Put plainly: ITC; βA peptides (700-850 µM) titrated into SETD3 (30 µM) preincubated with SAH (350 µM) for 1 h; 20 mM Tris, 200 mM NaCl, pH 8.0; MicroCal PEAQ-ITC; One Set of Sites model. As to conditions: both partners purified.

Experiment [2] addresses T1, human SETD3 histidine methyltransferase. Put plainly: cell-based or functional assay.
Experiment [3] has the same target. Put plainly: cell-based or functional assay. The source holds these as a separate data set.

B1: linear β-actin peptide (βA-H73, natural sequence) (peptide)
chain: TLKYPIEHGIVTNWDD-NH2
Take B1: the Kd in experiment [1] came out at 2.46 µM. Further, in experiment [2], the “kcat of SETD3-catalysed methylation, MALDI-TOF MS steady-state kinetics (200 nM SETD3, 100 µM SAM, pH 9.0, 37 °C)” value worked out at 148 min^-1 and the “kcat/Km of SETD3-catalysed methylation, MALDI-TOF MS steady-state kinetics (200 nM SETD3, 100 µM SAM, pH 9.0, 37 °C)” value is 5.78 µM^-1min^-1.

B2: stapled βA peptide 9 (cyclic lactam, Glu72-Lys75) (peptide)
chain: TLKYPIEHGKVTNWDD-NH2
modifications: lactam 7-10
B2 displayed a Kd in experiment [1] of 24 µM. Further, the “IC50 of inhibition of SETD3-catalysed methylation of the βA-H73 peptide, MALDI-TOF MS single point assay (10 and 100 µM peptide, 360 nM SETD3, 100 µM SAM)” value in experiment [3] was over 100 µM.
